*1 amine or outer side, *2 acyl side, *3 side chain or, on linkers, in order; H or OH if unused. Where no end group is shown, it is not given here. Side-chain parts run from the residue outwards. [ ]: non-standard residue; d: D form. The star is where a group is joined. γGlu = O=C(O)[C@H](CCC(=O)[*:2])N[*:1]; Palmitoyl = CCCCCCCCCCCCCCCC(=O)*; Decanoyl = CCCCCCCCCC(=O)*; Aib = CC(C)(N)C(=O)O
Legend:
[1] = target: T1, human glucagon-like peptide-2 receptor (human, UniProt O95838 1-553); test: cell-based or functional assay
T1 sequence (looked up): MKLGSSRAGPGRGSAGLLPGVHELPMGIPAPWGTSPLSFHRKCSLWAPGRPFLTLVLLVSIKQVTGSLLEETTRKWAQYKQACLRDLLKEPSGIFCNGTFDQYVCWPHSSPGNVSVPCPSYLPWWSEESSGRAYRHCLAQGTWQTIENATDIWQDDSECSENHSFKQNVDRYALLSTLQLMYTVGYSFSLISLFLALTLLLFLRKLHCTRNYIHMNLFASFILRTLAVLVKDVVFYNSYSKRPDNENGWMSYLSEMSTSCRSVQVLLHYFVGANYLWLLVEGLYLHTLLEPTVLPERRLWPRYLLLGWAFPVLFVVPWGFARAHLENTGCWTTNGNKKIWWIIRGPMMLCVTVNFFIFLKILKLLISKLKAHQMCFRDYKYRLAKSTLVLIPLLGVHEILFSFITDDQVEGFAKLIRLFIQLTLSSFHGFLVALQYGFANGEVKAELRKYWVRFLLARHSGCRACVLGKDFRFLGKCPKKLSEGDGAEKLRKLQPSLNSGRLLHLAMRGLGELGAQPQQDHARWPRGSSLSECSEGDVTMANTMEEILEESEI

[2] = target: T2, human glucose-dependent insulinotropic polypeptide receptor (human, UniProt P48546 22-466); test: cell-based or functional assay
T2 sequence (looked up): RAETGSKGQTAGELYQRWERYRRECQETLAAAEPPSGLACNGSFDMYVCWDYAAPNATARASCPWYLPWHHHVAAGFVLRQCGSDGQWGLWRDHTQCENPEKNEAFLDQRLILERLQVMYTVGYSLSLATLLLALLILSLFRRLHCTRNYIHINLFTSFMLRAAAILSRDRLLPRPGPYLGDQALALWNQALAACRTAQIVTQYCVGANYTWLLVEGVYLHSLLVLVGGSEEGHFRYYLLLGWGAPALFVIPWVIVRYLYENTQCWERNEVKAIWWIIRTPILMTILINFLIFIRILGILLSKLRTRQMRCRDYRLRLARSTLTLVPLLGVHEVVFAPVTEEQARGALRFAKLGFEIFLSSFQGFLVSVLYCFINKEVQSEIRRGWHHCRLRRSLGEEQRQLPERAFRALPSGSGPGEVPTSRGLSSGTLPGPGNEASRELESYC

B1: Compound no. 28 (peptide)
peptide: H[Aib]DGK([γGlu-γGlu-Palmitoyl])FISDYST[Aib]LDNLAARDFINWLIQTKITK-OH
modifications: N-terminus assumed
SMILES: CCCCCCCCCCCCCCCC(=O)N[C@@H](CCC(=O)N[C@@H](CCC(=O)NCCCC[C@H](NC(=O)CNC(=O)[C@H](CC(=O)O)NC(=O)C(C)(C)NC(=O)[C@@H](N)Cc1c[nH]cn1)C(=O)N[C@@H](Cc1ccccc1)C(=O)N[C@H](C(=O)N[C@@H](CO)C(=O)N[C@@H](CC(=O)O)C(=O)N[C@@H](Cc1ccc(O)cc1)C(=O)N[C@@H](CO)C(=O)N[C@H](C(=O)NC(C)(C)C(=O)N[C@@H](CC(C)C)C(=O)N[C@@H](CC(=O)O)C(=O)N[C@@H](CC(N)=O)C(=O)N[C@@H](CC(C)C)C(=O)N[C@@H](C)C(=O)N[C@@H](C)C(=O)N[C@@H](CCCNC(=N)N)C(=O)N[C@@H](CC(=O)O)C(=O)N[C@@H](Cc1ccccc1)C(=O)N[C@H](C(=O)N[C@@H](CC(N)=O)C(=O)N[C@@H](Cc1c[nH]c2ccccc12)C(=O)N[C@@H](CC(C)C)C(=O)N[C@H](C(=O)N[C@@H](CCC(N)=O)C(=O)N[C@H](C(=O)N[C@@H](CCCCN)C(=O)N[C@H](C(=O)N[C@H](C(=O)N[C@@H](CCCCN)C(=O)O)[C@@H](C)O)[C@@H](C)CC)[C@@H](C)O)[C@@H](C)CC)[C@@H](C)CC)[C@@H](C)O)[C@@H](C)CC)C(=O)O)C(=O)O
- Efficacy GLP-2R [1]: 99%
- Efficacy GIPR [2]: 105%

B2: Compound no. 29 (peptide)
peptide: H[Aib]DGTFISDYK([γGlu-Palmitoyl])T[Aib]LDNLAARDFINWLIQTKITK-OH
modifications: N-terminus assumed
SMILES: CCCCCCCCCCCCCCCC(=O)N[C@@H](CCC(=O)NCCCC[C@H](NC(=O)[C@H](Cc1ccc(O)cc1)NC(=O)[C@H](CC(=O)O)NC(=O)[C@H](CO)NC(=O)[C@@H](NC(=O)[C@H](Cc1ccccc1)NC(=O)[C@@H](NC(=O)CNC(=O)[C@H](CC(=O)O)NC(=O)C(C)(C)NC(=O)[C@@H](N)Cc1c[nH]cn1)[C@@H](C)O)[C@@H](C)CC)C(=O)N[C@H](C(=O)NC(C)(C)C(=O)N[C@@H](CC(C)C)C(=O)N[C@@H](CC(=O)O)C(=O)N[C@@H](CC(N)=O)C(=O)N[C@@H](CC(C)C)C(=O)N[C@@H](C)C(=O)N[C@@H](C)C(=O)N[C@@H](CCCNC(=N)N)C(=O)N[C@@H](CC(=O)O)C(=O)N[C@@H](Cc1ccccc1)C(=O)N[C@H](C(=O)N[C@@H](CC(N)=O)C(=O)N[C@@H](Cc1c[nH]c2ccccc12)C(=O)N[C@@H](CC(C)C)C(=O)N[C@H](C(=O)N[C@@H](CCC(N)=O)C(=O)N[C@H](C(=O)N[C@@H](CCCCN)C(=O)N[C@H](C(=O)N[C@H](C(=O)N[C@@H](CCCCN)C(=O)O)[C@@H](C)O)[C@@H](C)CC)[C@@H](C)O)[C@@H](C)CC)[C@@H](C)CC)[C@@H](C)O)C(=O)O
- Efficacy GLP-2R [1]: 124%
- Efficacy GIPR [2]: 104%

B3: Compound no. 26 (peptide)
peptide: H[Aib]DGK([γGlu-γGlu-Decanoyl])FISDYSTILDNLAARDFINWLIQTKITK-OH
modifications: N-terminus assumed
SMILES: CCCCCCCCCC(=O)N[C@@H](CCC(=O)N[C@@H](CCC(=O)NCCCC[C@H](NC(=O)CNC(=O)[C@H](CC(=O)O)NC(=O)C(C)(C)NC(=O)[C@@H](N)Cc1c[nH]cn1)C(=O)N[C@@H](Cc1ccccc1)C(=O)N[C@H](C(=O)N[C@@H](CO)C(=O)N[C@@H](CC(=O)O)C(=O)N[C@@H](Cc1ccc(O)cc1)C(=O)N[C@@H](CO)C(=O)N[C@H](C(=O)N[C@H](C(=O)N[C@@H](CC(C)C)C(=O)N[C@@H](CC(=O)O)C(=O)N[C@@H](CC(N)=O)C(=O)N[C@@H](CC(C)C)C(=O)N[C@@H](C)C(=O)N[C@@H](C)C(=O)N[C@@H](CCCNC(=N)N)C(=O)N[C@@H](CC(=O)O)C(=O)N[C@@H](Cc1ccccc1)C(=O)N[C@H](C(=O)N[C@@H](CC(N)=O)C(=O)N[C@@H](Cc1c[nH]c2ccccc12)C(=O)N[C@@H](CC(C)C)C(=O)N[C@H](C(=O)N[C@@H](CCC(N)=O)C(=O)N[C@H](C(=O)N[C@@H](CCCCN)C(=O)N[C@H](C(=O)N[C@H](C(=O)N[C@@H](CCCCN)C(=O)O)[C@@H](C)O)[C@@H](C)CC)[C@@H](C)O)[C@@H](C)CC)[C@@H](C)CC)[C@@H](C)CC)[C@@H](C)O)[C@@H](C)CC)C(=O)O)C(=O)O
- Efficacy GLP-2R [1]: 91%
- Efficacy GIPR [2]: 80%

B4: Compound no. 31 (peptide)
peptide: H[Aib]DGTFISDYK([γGlu-Decanoyl])TILDKLAARDFIEWLIATKITK-OH
modifications: N-terminus assumed
SMILES: CCCCCCCCCC(=O)N[C@@H](CCC(=O)NCCCC[C@H](NC(=O)[C@H](Cc1ccc(O)cc1)NC(=O)[C@H](CC(=O)O)NC(=O)[C@H](CO)NC(=O)[C@@H](NC(=O)[C@H](Cc1ccccc1)NC(=O)[C@@H](NC(=O)CNC(=O)[C@H](CC(=O)O)NC(=O)C(C)(C)NC(=O)[C@@H](N)Cc1c[nH]cn1)[C@@H](C)O)[C@@H](C)CC)C(=O)N[C@H](C(=O)N[C@H](C(=O)N[C@@H](CC(C)C)C(=O)N[C@@H](CC(=O)O)C(=O)N[C@@H](CCCCN)C(=O)N[C@@H](CC(C)C)C(=O)N[C@@H](C)C(=O)N[C@@H](C)C(=O)N[C@@H](CCCNC(=N)N)C(=O)N[C@@H](CC(=O)O)C(=O)N[C@@H](Cc1ccccc1)C(=O)N[C@H](C(=O)N[C@@H](CCC(=O)O)C(=O)N[C@@H](Cc1c[nH]c2ccccc12)C(=O)N[C@@H](CC(C)C)C(=O)N[C@H](C(=O)N[C@@H](C)C(=O)N[C@H](C(=O)N[C@@H](CCCCN)C(=O)N[C@H](C(=O)N[C@H](C(=O)N[C@@H](CCCCN)C(=O)O)[C@@H](C)O)[C@@H](C)CC)[C@@H](C)O)[C@@H](C)CC)[C@@H](C)CC)[C@@H](C)CC)[C@@H](C)O)C(=O)O
- Efficacy GLP-2R [1]: 90%
- Efficacy GIPR [2]: 89%

B5: Compound no. 27 (peptide)
peptide: H[Aib]EGK([γGlu-Palmitoyl])FISDYST[Aib]LDNLAARDFINWLIQTKITK-OH
modifications: N-terminus assumed
SMILES: CCCCCCCCCCCCCCCC(=O)N[C@@H](CCC(=O)NCCCC[C@H](NC(=O)CNC(=O)[C@H](CCC(=O)O)NC(=O)C(C)(C)NC(=O)[C@@H](N)Cc1c[nH]cn1)C(=O)N[C@@H](Cc1ccccc1)C(=O)N[C@H](C(=O)N[C@@H](CO)C(=O)N[C@@H](CC(=O)O)C(=O)N[C@@H](Cc1ccc(O)cc1)C(=O)N[C@@H](CO)C(=O)N[C@H](C(=O)NC(C)(C)C(=O)N[C@@H](CC(C)C)C(=O)N[C@@H](CC(=O)O)C(=O)N[C@@H](CC(N)=O)C(=O)N[C@@H](CC(C)C)C(=O)N[C@@H](C)C(=O)N[C@@H](C)C(=O)N[C@@H](CCCNC(=N)N)C(=O)N[C@@H](CC(=O)O)C(=O)N[C@@H](Cc1ccccc1)C(=O)N[C@H](C(=O)N[C@@H](CC(N)=O)C(=O)N[C@@H](Cc1c[nH]c2ccccc12)C(=O)N[C@@H](CC(C)C)C(=O)N[C@H](C(=O)N[C@@H](CCC(N)=O)C(=O)N[C@H](C(=O)N[C@@H](CCCCN)C(=O)N[C@H](C(=O)N[C@H](C(=O)N[C@@H](CCCCN)C(=O)O)[C@@H](C)O)[C@@H](C)CC)[C@@H](C)O)[C@@H](C)CC)[C@@H](C)CC)[C@@H](C)O)[C@@H](C)CC)C(=O)O
- Efficacy GLP-2R [1]: 108%
- Efficacy GIPR [2]: 98%

B6: Compound no. 32 (peptide)
peptide: H[Aib]DGTFISDYK([γGlu-Palmitoyl])TILDNLAARDFINWLIETKITK-OH
modifications: N-terminus assumed
SMILES: CCCCCCCCCCCCCCCC(=O)N[C@@H](CCC(=O)NCCCC[C@H](NC(=O)[C@H](Cc1ccc(O)cc1)NC(=O)[C@H](CC(=O)O)NC(=O)[C@H](CO)NC(=O)[C@@H](NC(=O)[C@H](Cc1ccccc1)NC(=O)[C@@H](NC(=O)CNC(=O)[C@H](CC(=O)O)NC(=O)C(C)(C)NC(=O)[C@@H](N)Cc1c[nH]cn1)[C@@H](C)O)[C@@H](C)CC)C(=O)N[C@H](C(=O)N[C@H](C(=O)N[C@@H](CC(C)C)C(=O)N[C@@H](CC(=O)O)C(=O)N[C@@H](CC(N)=O)C(=O)N[C@@H](CC(C)C)C(=O)N[C@@H](C)C(=O)N[C@@H](C)C(=O)N[C@@H](CCCNC(=N)N)C(=O)N[C@@H](CC(=O)O)C(=O)N[C@@H](Cc1ccccc1)C(=O)N[C@H](C(=O)N[C@@H](CC(N)=O)C(=O)N[C@@H](Cc1c[nH]c2ccccc12)C(=O)N[C@@H](CC(C)C)C(=O)N[C@H](C(=O)N[C@@H](CCC(=O)O)C(=O)N[C@H](C(=O)N[C@@H](CCCCN)C(=O)N[C@H](C(=O)N[C@H](C(=O)N[C@@H](CCCCN)C(=O)O)[C@@H](C)O)[C@@H](C)CC)[C@@H](C)O)[C@@H](C)CC)[C@@H](C)CC)[C@@H](C)CC)[C@@H](C)O)C(=O)O
- EC50 (nM) GLP-2R [1]: 10 nM
- Efficacy GLP-2R [1]: 84%
- logEC50 GLP-2R [1]: 8
- Efficacy GIPR [2]: 89%

— patent US20250304643A1 (BAINAN BIOTECH, published 2025)
